These results are taken from patent publication US20220324969A1 (MYTHIC THERAPEUTICS, published 2022).

Substitutions are numbered along the chain they refer to. Names may count otherwise.

The labels stand for the following.
B1: MYT1217 (antibody, V domains shown)
VH: QVQLQQPGAEVVKPGASVKMSCKASGYTFHSYYIHWIKQTPGQGLEWVGVIYPGNDDISYNQKFQGKATLTADKSSTTAYMQLSSLTSEDSAVYYCAREVRLRYFDVWGQGTTVTVSS
VL: EIVLTQSPGSLAVSPGERVTMSCKSSQSVFFSSSQKNYLAWYQQIPGQSPRLLIYWASTRESGVPDRFTGSGSGTDFTLTISSVQPEDLAIYYCHQYLSSRTFGQGTKLEIK
notes: IgG; IMGN779 VH variant #5 (T30H)
B2: MYT2617 (antibody, V domains shown)
VH: B1 VH with H30T
VL: B1 VL with K24H
notes: IgG; IMGN779 VL variant #1 (K24H)
B3: MYT1229 (antibody, V domains shown)
VH: B1 VH with H30T, D56H
VL: B1 VL
notes: IgG; IMGN779 VH variant #17 (D56H)
B4: MYT2621 (antibody, V domains shown)
VH: B1 VH with H30T
VL: B1 VL with S28H
notes: IgG; IMGN779 VL variant #5 (S28H)
B5: MYT1245 (antibody, V domains shown)
VH: B1 VH with H30T, L102H
VL: B1 VL
notes: IgG; IMGN779 VH variant #33 (L102H)
B6: MYT1227 (antibody, V domains shown)
VH: B1 VH with H30T, G54H
VL: B1 VL
notes: IgG; IMGN779 VH variant #15 (G54H)
B7: MYT1248 (antibody, V domains shown)
VH: B1 VH with H30T, F105H
VL: B1 VL
notes: IgG; IMGN779 VH variant #36 (F105H)
B8: MYT1238 (antibody, V domains shown)
VH: B1 VH with H30T, Q65H
VL: B1 VL
notes: IgG; IMGN779 VH variant #26 (Q65H)
B9: MYT2619 (antibody, V domains shown)
VH: B1 VH with H30T
VL: B1 VL with S26H
notes: IgG; IMGN779 VL variant #3 (S26H)
B10: MYT1247 (antibody, V domains shown)
VH: B1 VH with H30T, Y104H
VL: B1 VL
notes: IgG; IMGN779 VH variant #35 (Y104H)
B11: MYT1250 (antibody, V domains shown)
VH: B1 VH with H30T, V107H
VL: B1 VL
notes: IgG; IMGN779 VH variant #38 (V107H)
B12: MYT1221 (antibody, V domains shown)
VH: B1 VH with H30T, I34H
VL: B1 VL
notes: IgG; IMGN779 VH variant #9 (I34H)
B13: MYT2626 (antibody, V domains shown)
VH: B1 VH with H30T
VL: B1 VL with S33H
notes: IgG; IMGN779 VL variant #10 (S33H)
B14: MYT1246 (antibody, V domains shown)
VH: B1 VH with H30T, R103H
VL: B1 VL
notes: IgG; IMGN779 VH variant #34 (R103H)
B15: MYT2623 (antibody, V domains shown)
VH: B1 VH with H30T
VL: B1 VL with F30H
notes: IgG; IMGN779 VL variant #7 (F30H)
B16: MYT1222 (antibody, V domains shown)
VH: B1 VH with H30T, H35A
VL: B1 VL
notes: IgG; IMGN779 VH variant #10 (H35A)
B17: MYT2622 (antibody, V domains shown)
VH: B1 VH with H30T
VL: B1 VL with V29H
notes: IgG; IMGN779 VL variant #6 (V29H)
B18: MYT1235 (antibody, V domains shown)
VH: B1 VH with H30T, Q62H
VL: B1 VL
notes: IgG; IMGN779 VH variant #23 (Q62H)
B19: MYT2629 (antibody, V domains shown)
VH: B1 VH with H30T
VL: B1 VL with K36H
notes: IgG; IMGN779 VL variant #13 (K36H)
B20: MYT1220 (antibody, V domains shown)
VH: B1 VH with H30T, Y33H
VL: B1 VL
notes: IgG; IMGN779 VH variant #8 (Y33H)
B21: MYT1243 (antibody, V domains shown)
VH: B1 VH with H30T, V100H
VL: B1 VL
notes: IgG; IMGN779 VH variant #31 (V100H)
B22: MYT2620 (antibody, V domains shown)
VH: B1 VH with H30T
VL: B1 VL with Q27H
notes: IgG; IMGN779 VL variant #4 (Q27H)
B23: MYT2627 (antibody, V domains shown)
VH: B1 VH with H30T
VL: B1 VL with S34H
notes: IgG; IMGN779 VL variant #11 (S34H)
B24: MYT1223 (antibody, V domains shown)
VH: B1 VH with H30T, V50H
VL: B1 VL
notes: IgG; IMGN779 VH variant #11 (V50H)
B25: MYT2628 (antibody, V domains shown)
VH: B1 VH with H30T
VL: B1 VL with Q35H
notes: IgG; IMGN779 VL variant #12 (Q35H)
B26: MYT1231 (antibody, V domains shown)
VH: B1 VH with H30T, I58H
VL: B1 VL
notes: IgG; IMGN779 VH variant #19 (I58H)
B27: MYT1228 (antibody, V domains shown)
VH: B1 VH with H30T, N55H
VL: B1 VL
notes: IgG; IMGN779 VH variant #16 (N55H)
B28: MYT2618 (antibody, V domains shown)
VH: B1 VH with H30T
VL: B1 VL with S25H
notes: IgG; IMGN779 VL variant #2 (S25H)
B29: MYT1218 (antibody, V domains shown)
VH: B1 VH with H30T, S31H
VL: B1 VL
notes: IgG; IMGN779 VH variant #6 (S31H)
B30: MYT1237 (antibody, V domains shown)
VH: B1 VH with H30T, F64H
VL: B1 VL
notes: IgG; IMGN779 VH variant #25 (F64H)
B31: MYT1232 (antibody, V domains shown)
VH: B1 VH with H30T, S59H
VL: B1 VL
notes: IgG; IMGN779 VH variant #20 (S59H)
B32: MYT1225 (antibody, V domains shown)
VH: B1 VH with H30T, Y52H
VL: B1 VL
notes: IgG; IMGN779 VH variant #13 (Y52H)
B33: MYT1241 (antibody, V domains shown)
VH: B1 VH with H30T, R98H
VL: B1 VL
notes: IgG; IMGN779 VH variant #29 (R98H)
B34: MYT1234 (antibody, V domains shown)
VH: B1 VH with H30T, N61H
VL: B1 VL
notes: IgG; IMGN779 VH variant #22 (N61H)
B35: MYT1224 (antibody, V domains shown)
VH: B1 VH with H30T, I51H
VL: B1 VL
notes: IgG; IMGN779 VH variant #12 (I51H)
B36: MYT1244 (antibody, V domains shown)
VH: B1 VH with H30T, R101H
VL: B1 VL
notes: IgG; IMGN779 VH variant #32 (R101H)
B37: MYT1230 (antibody, V domains shown)
VH: B1 VH with H30T, D57H
VL: B1 VL
notes: IgG; IMGN779 VH variant #18 (D57H)
B38: MYT1236 (antibody, V domains shown)
VH: B1 VH with H30T, K63H
VL: B1 VL
notes: IgG; IMGN779 VH variant #24 (K63H)
B39: MYT1219 (antibody, V domains shown)
VH: B1 VH with H30T, Y32H
VL: B1 VL
notes: IgG; IMGN779 VH variant #7 (Y32H)
B40: MYT2624 (antibody, V domains shown)
VH: B1 VH with H30T
VL: B1 VL with F31H
notes: IgG; IMGN779 VL variant #8 (F31H)
B41: MYT1239 (antibody, V domains shown)
VH: B1 VH with H30T, G66H
VL: B1 VL
notes: IgG; IMGN779 VH variant #27 (G66H)
B42: MYT1226 (antibody, V domains shown)
VH: B1 VH with H30T, P53H
VL: B1 VL
notes: IgG; IMGN779 VH variant #14 (P53H)
B43: MYT2625 (antibody, V domains shown)
VH: B1 VH with H30T
VL: B1 VL with S32H
notes: IgG; IMGN779 VL variant #9 (S32H)
B44: MYT1233 (antibody, V domains shown)
VH: B1 VH with H30T, Y60H
VL: B1 VL
notes: IgG; IMGN779 VH variant #21 (Y60H)

The test deals with CD33 (Sino Biological, Cat #12238-H08H) (UniProt P20138 18-259). The experiment in a line: BLI, IgG captured on anti-human Fc sensor, 50 nM CD33, pH 7.4 vs pH 5.4.
Chain of CD33 (Sino Biological, Cat #12238-H08H) (P20138 18-259 limits assumed): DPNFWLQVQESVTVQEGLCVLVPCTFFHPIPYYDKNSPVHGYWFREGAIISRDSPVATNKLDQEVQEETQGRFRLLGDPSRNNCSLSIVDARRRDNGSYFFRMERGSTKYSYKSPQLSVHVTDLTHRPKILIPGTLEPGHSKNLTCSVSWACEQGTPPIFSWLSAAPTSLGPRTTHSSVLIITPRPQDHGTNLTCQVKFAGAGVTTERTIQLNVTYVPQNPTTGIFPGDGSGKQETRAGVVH
Regarding B1, the binding result was “binds”. In the case of B2, the binding result was “binds”.

In the case of B3, the binding result is on record as “binds”. The entry for B4 is “binds”. The entry for B5 is “binds”. Regarding B6, the binding result was “binds”. In the case of B7 it was “binds”; in that of B8, “binds”.

Consider B9, for which the binding result is “binds”. The entry for B10 is “binds”.

With B11, the binding result is listed as “binds”.

As to B12, the binding result was “binds”. In the case of B13 it was “binds”; in that of B14, “binds”. The entry for B15 is “binds”.

Consider B16, for which the binding result was “binds”. The entry for B17 is “binds”; for B18 it is “binds”; for B19 it is “binds”. In the case of B20 it was “binds”; in that of B21, “binds”. For B22, the binding result was “binds”.

With B23, the binding result is on record as “binds”. The entry for B24 is “binds”; for B25 it is “binds”; for B26 it is “binds”. The entry for B27 is “binds”; for B28 it is “binds”; for B29 it is “binds”.

Take B30: the binding result was “binds”. The entry for B31 is “binds”. The entry for B32 is “binds”; for B33 it is “binds”; for B34 it is “binds”.

B35: the binding result was “binds”.

B36: the binding result is “binds”. The entry for B37 is “binds”; for B38 it is “binds”; for B39 it is “binds”. For the molecule B40, the binding result is on record as “binds”. In the case of B41, the binding result is listed as “binds”. In the case of B42 it was “binds”; in that of B43, “binds”. The entry for B44 is “binds”.
